The values below come from publication PMC5008011, “The sclerostin-neutralizing antibody AbD09097 recognizes an epitope adjacent to sclerostin's binding site for the Wnt co-receptor LRP6” (Open Biology, 2016).

For experiment [1], the target named is T1, 14mer peptide PARLLPNAIGRGKW, equivalent to residues Pro86 to Trp99 of sclerostin loop 2 (Homo sapiens).
T1 construct: loop 2 of sclerostin; also called first peptide; base peptide; source: synthetic peptide, synthesized on solid support (array)
T1 chain: PARLLPNAIGRGKW
Briefly: peptide or protein array; truncation array: all truncated variants (3 to 14mer) of two 14mer loop 2 peptides synthesized on solid support; Fab added, modified ELISA with goat anti-human peroxidase coupled secondary antibody. Conditions: both partners purified. Background: In an ELISA, binding on a coated surface is turned into a signal by an enzyme label.

In experiment [2] the target is T2, 14mer peptide NAIGRGKWWRPSGP, equivalent to residues Asn92 to Pro105 of sclerostin loop 2 (Homo sapiens).
T2 construct: loop 2 of sclerostin; also called second peptide; source: synthetic peptide, synthesized on solid support (array)
T2 chain: NAIGRGKWWRPSGP
The experiment is described as above. To be noted: both partners purified.

Experiment [3] concerns the target T3, murine sclerostin (Mus musculus, UniProt Q99P68).
T3 construct: sclerostin, murine; The ELISA may have used the Sf9-made antigen instead; also called mScl
Briefly: ELISA; plates coated with 5 µg/ml protein in PBS; Fab at 2 µg/ml, 1 h at room temperature; detection with anti-human Fab-alkaline phosphatase and AttoPhos; signal/noise over the background of BSA, N1-CD33-His6 and GST. Conditions: both partners purified.

The target in experiment [4] is T4, human sclerostin (Homo sapiens, UniProt Q9BQB4).
T4 construct: sclerostin, human; The ELISA may have used the Sf9-made antigen instead; also called hScl
Described as above. To be noted: both partners purified.

Experiment [5] deals with T3, murine sclerostin. Kind of experiment: SPR; ProteOn, 25°C, HBS150T (10 mM HEPES, 150 mM NaCl, pH 7.5, 0.005% Tween 20); sclerostin proteins or variants amine-coupled to about 600 RU on a GLC chip; Fabs as analytes at 100, 75, 50, 25, 12.5 and 6.25 nM (one-shot kinetics); 1:1 Langmuir model. To be noted: both partners purified. On the technique in general: SPR reads the build-up and loss of mass on a sensor chip optically.

For experiment [6], the target named is T4, human sclerostin. The experiment is described as above. To be noted: both partners purified.
Experiment [7] has as its target T5, 14mer peptide PARLLPNAIGRGKW (Homo sapiens).
T5 construct: stretch of loop 2 of sclerostin; also called base peptide; loop 2 mimicking peptide; source: synthetic peptide, on solid support (peptide array)
T5 chain: PARLLPNAIGRGKW
Kind of experiment: peptide or protein array; peptides synthesised on solid support (overlapping, replacement and truncation libraries); Fab detected by a modified ELISA with goat anti-human peroxidase-coupled secondary antibody. Conditions: both partners purified.

Experiment [8] addresses T3, murine sclerostin. Kind of experiment: cell-based or functional assay.
Experiment [9] addresses T4, human sclerostin. Kind of experiment: cell-based or functional assay.
Experiment [10] addresses T3, murine sclerostin. Briefly: cell-based or functional assay. The source holds these as a separate data set.
The target in experiment [11] is T4, human sclerostin. Kind of experiment: cell-based or functional assay. The source holds these as a separate data set.
Experiment [12] deals with T3, murine sclerostin. Kind of experiment: SPR; ProteOn, 25°C, HBS150T (10 mM HEPES, 150 mM NaCl, pH 7.5, 0.005% Tween 20); sclerostin proteins or variants amine-coupled to about 600 RU on a GLC chip; Fabs as analytes at 100, 75, 50, 25, 12.5 and 6.25 nM (one-shot kinetics); 1:1 Langmuir model. To be noted: both partners purified. This is another data set of the same source.

The target of experiment [13] is T4, human sclerostin. The experiment is described as above. Conditions: both partners purified. This is another data set of the same source.

T4 sequence (Q9BQB4 24-213): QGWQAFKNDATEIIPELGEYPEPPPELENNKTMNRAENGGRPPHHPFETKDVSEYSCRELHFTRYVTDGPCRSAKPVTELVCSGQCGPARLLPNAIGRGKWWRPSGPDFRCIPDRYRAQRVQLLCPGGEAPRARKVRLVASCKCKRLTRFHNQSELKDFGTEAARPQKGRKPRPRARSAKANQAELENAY
T3 sequence (Q99P68 24-211): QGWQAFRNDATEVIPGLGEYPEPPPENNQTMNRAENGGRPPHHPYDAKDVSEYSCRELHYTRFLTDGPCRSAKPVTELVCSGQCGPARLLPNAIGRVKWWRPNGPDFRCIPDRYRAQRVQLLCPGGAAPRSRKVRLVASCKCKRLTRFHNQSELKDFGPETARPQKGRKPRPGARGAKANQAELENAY

B1: Fab AbD09097 (Fab, V domains shown)
VH: QVQLVESGGGLVQPGGSLRLSCAASGFTFTNYYMHWVRQAPGKGLEWVSTIAYDGSSTYYADSVKGRFTISRDNSKNTLYLQMNSLRAEDTAVYYCARWFTDDIWGQGTLVTVSS
VL: not shown
notes: also called ancestor Fab; source: E. coli, periplasmic expression, purified by the hexahistidine-tag
For the molecule B1, the binding result in [1] and in experiment [2] was “binds” each time.

B2: Fab AbD12683 (Fab, V domains shown)
VH: QVQLVESGGGLVQPGGSLRLSCAASGFTFTNYYMHWVRQAPGKGLEWVSTIAYDGSSTYYADSVKGRFTISRDNSKNTLYLQMNSLRAEDTAVYYCARWFTDDIWGQGTLVTVSS
VL: not shown
notes: as the light chain of Dm1 up to the Cys before CDR3L; as the light chain of Dm1 from Thr97 (Kabat) to the end; heavy chain extension as in Dm1; source: E. coli, periplasmic expression, purified by the hexahistidine-tag
As to B2, in [1], the binding result was “binds”.

B3: Fab AbD12682 (Fab, V domains shown)
VH: QVQLVESGGGLVQPGGSLRLSCAASGFTFTNYYMHWVRQAPGKGLEWVSTIAYDGSSTYYADSVKGRFTISRDNSKNTLYLQMNSLRAEDTAVYYCARWFTDDIWGQGTLVTVSS
VL: not shown
notes: consensus motif -QQDXXFPI- (X: His, Glu, Val or Ser); source: E. coli, periplasmic expression, purified via hexahistidine-tag
As to B3, the “ELISA signal/noise ratio (fold background)” value with murine sclerostin [3] worked out at 44 fold background. The “ELISA signal/noise ratio (fold background)” value in the experiment with human sclerostin [4] was found to be 57 fold background. In addition, in the experiment with murine sclerostin [5], the Kd worked out at 13 nM, the koff came to 0.00025 s⁻¹ and the kon turned out to be 22000 M⁻¹ s⁻¹. Besides, in the experiment with human sclerostin [6], the Kd came to 23 nM, the koff was found to be 0.00066 s⁻¹ and the association rate constant (kon) was 32000 M⁻¹ s⁻¹. Moreover, the binding result in experiment [7] is on record as “binds”.

B4: Fab AbD12687 (Fab, V domains shown)
VH: QVQLVESGGGLVQPGGSLRLSCAASGFTFTNYYMHWVRQAPGKGLEWVSTIAYDGSSTYYADSVKGRFTISRDNSKNTLYLQMNSLRAEDTAVYYCARWFTDDIWGQGTLVTVSS
VL: DIVLTQSPATLSLSPGERATLSCRASQSISSNELAWYQQKPGQAPRLLIYDTSNRATGVPARFSGSGSGTDFTLTISSLEPEDFAVYYCQQDVVMPITFGQGTKVEIK
notes: source: E. coli, periplasmic expression, purified via hexahistidine-tag
With B4, the “ELISA signal/noise ratio (fold background)” value with murine sclerostin [3] was 50 fold background; in the experiment with human sclerostin [4], 57 fold background. Also, the values for the Kd in the experiment with murine sclerostin [5] and with human sclerostin [6] were 120 nM and 228 nM, respectively. In addition, the koff was 0.0017 s⁻¹ in the experiment with murine sclerostin [5] and 0.0047 s⁻¹ with human sclerostin [6]. In addition, the kon with murine sclerostin [5] came out at 16000 M⁻¹ s⁻¹; in the experiment with human sclerostin [6] it was 23300 M⁻¹ s⁻¹.

B5: Fab AbD12684 (Fab, V domains shown)
VH: QVQLVESGGGLVQPGGSLRLSCAASGFTFTNYYMHWVRQAPGKGLEWVSTIAYDGSSTYYADSVKGRFTISRDNSKNTLYLQMNSLRAEDTAVYYCARWFTDDIWGQGTLVTVSS
VL: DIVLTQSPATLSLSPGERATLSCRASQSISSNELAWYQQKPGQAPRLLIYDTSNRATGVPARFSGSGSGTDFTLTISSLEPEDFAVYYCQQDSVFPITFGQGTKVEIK
notes: as for B3
B5: the “ELISA signal/noise ratio (fold background)” value is 53 fold background in the experiment with murine sclerostin [3] and 73 fold background with human sclerostin [4]. The figures for the Kd with murine sclerostin [5] and in the experiment with human sclerostin [6] were 15 nM and 32 nM, respectively. For the same molecule, the figures for the koff with murine sclerostin [5] and in the experiment with human sclerostin [6] were 0.00025 s⁻¹ and 0.00073 s⁻¹, respectively. Also, the kon is 18400 M⁻¹ s⁻¹ with murine sclerostin [5] and 25300 M⁻¹ s⁻¹ with human sclerostin [6].

B6: Fab AbD12681 (Fab, V domains shown)
VH: QVQLVESGGGLVQPGGSLRLSCAASGFTFTNYYMHWVRQAPGKGLEWVSTIAYDGSSTYYADSVKGRFTISRDNSKNTLYLQMNSLRAEDTAVYYCARWFTDDIWGQGTLVTVSS
VL: DIVLTQSPATLSLSPGERATLSCRASQSISSNELAWYQQKPGQAPRLLIYDTSNRATGVPARFSGSGSGTDFTLTISSLEPEDFAVYYCQQDHEFPITFGQGTKVEIK
notes: as for B3
In the case of B6, the “ELISA signal/noise ratio (fold background)” value in the experiment with murine sclerostin [3] turned out to be 26 fold background. Besides, in the experiment with human sclerostin [4], the “ELISA signal/noise ratio (fold background)” value is 44 fold background. Also, in the experiment with murine sclerostin [5], binding was characterised by a dissociation constant (Kd) of 35 nM, the koff is 0.00054 s⁻¹ and the kon is 17000 M⁻¹ s⁻¹. In the experiment with human sclerostin [6], this molecule displayed a Kd of 66 nM, a koff of 0.0016 s⁻¹ and a kon of 27400 M⁻¹ s⁻¹.

B7: Fab AbD12685 (Fab, V domains shown)
VH: QVQLVESGGGLVQPGGSLRLSCAASGFTFTNYYMHWVRQAPGKGLEWVSTIAYDGSSTYYADSVKGRFTISRDNSKNTLYLQMNSLRAEDTAVYYCARWFTDDIWGQGTLVTVSS
VL: DIVLTQSPATLSLSPGERATLSCRASQSISSNELAWYQQKPGQAPRLLIYDTSNRATGVPARFSGSGSGTDFTLTISSLEPEDFAVYYCQQDYTFPLTFGQGTKVEIK
notes: as for B4
As to B7, the “ELISA signal/noise ratio (fold background)” value with murine sclerostin [3] turned out to be 46 fold background. Besides, the “ELISA signal/noise ratio (fold background)” value in the experiment with human sclerostin [4] is 61 fold background. In the experiment with murine sclerostin [5], this molecule gave a Kd of 145 nM, a koff of 0.00029 s⁻¹ and a kon of 13000 M⁻¹ s⁻¹. Also, in the experiment with human sclerostin [6], binding was characterised by a dissociation constant (Kd) of 56 nM, the koff was 0.001 s⁻¹ and the association rate constant (kon) was determined as 20400 M⁻¹ s⁻¹.

B8: Fab AbD12683 (Fab, V domains shown)
VH: QVQLVESGGGLVQPGGSLRLSCAASGFTFTNYYMHWVRQAPGKGLEWVSTIAYDGSSTYYADSVKGRFTISRDNSKNTLYLQMNSLRAEDTAVYYCARWFTDDIWGQGTLVTVSS
VL: not shown
notes: carries a tyrosine at position 3 of CDR3L; source: E. coli, periplasmic expression, purified via hexahistidine-tag
As for B8, the “ELISA signal/noise ratio (fold background)” value in the experiment with murine sclerostin [3] came out at 28 fold background. In addition, the “ELISA signal/noise ratio (fold background)” value with human sclerostin [4] turned out to be 64 fold background. In the experiment with murine sclerostin [5], this molecule came in with a Kd of under 1 nM, a koff of under 1e-06 s⁻¹ and a kon of 3400 M⁻¹ s⁻¹. Moreover, in the experiment with human sclerostin [6], binding was put at a Kd of 53 nM, the koff is 0.00033 s⁻¹ and the kon turned out to be 6400 M⁻¹ s⁻¹. Also, the binding result in experiment [7] is “binds”.

B9: Fab AbD12682 (Fab, V domains shown)
VH: QVQLVESGGGLVQPGGSLRLSCAASGFTFTNYYMHWVRQAPGKGLEWVSTIAYDGSSTYYADSVKGRFTISRDNSKNTLYLQMNSLRAEDTAVYYCARWFTDDIWGQGTLVTVSS
VL: not shown
notes: as for B2
As for B9, the binding result in experiment [1] was “binds”.

B10: Fab AbD09097 (Fab, V domains shown)
VH: QVQLVESGGGLVQPGGSLRLSCAASGFTFTNYYMHWVRQAPGKGLEWVSTIAYDGSSTYYADSVKGRFTISRDNSKNTLYLQMNSLRAEDTAVYYCARWFTDDIWGQGTLVTVSS
VL: not shown
notes: format Fab-Thr-MH with a thrombin site (-FLVPRGS-) between CH1 and the tags; kappa light chain; From the HuCAL GOLD phage library, panned on murine sclerostin; also called ancestor Fab AbD09097; HCA230Z (as full-length IgG, AbD Serotec); source: E. coli, periplasmic expression, purified via hexahistidine-tag
Regarding B10, in the experiment with murine sclerostin [8], the “Wnt1 reporter gene assay (HEK293TSA M50, luciferase): fold change of the IC50 of murine sclerostin for inhibition of Wnt1 activity with 500 nM Fab; the blocked pair is sclerostin and LRP5/6” value turned out to be 12.6 fold. Further, in the experiment with human sclerostin [9], the “Wnt1 reporter gene assay (HEK293TSA M50, luciferase): fold change of the IC50 of human sclerostin for inhibition of Wnt1 activity with 500 nM Fab; the blocked pair is sclerostin and LRP5/6” value came out at 6.4 fold. Also, the “Wnt1 reporter gene assay with 20 nM murine sclerostin and 0-670 nM AbD09097: EC50 of the rescue of Wnt1 activity” value with murine sclerostin [10] was found to be 46 nM. Besides, the “Wnt1 reporter gene assay with 20 nM human sclerostin and 0-670 nM AbD09097: EC50 of the rescue of Wnt1 activity” value in the experiment with human sclerostin [11] amounted to 197 nM. For the same molecule, in the experiment with murine sclerostin [3], the “ELISA signal/noise ratio (fold background)” value amounted to 39 fold background. In the experiment with human sclerostin [4], the “ELISA signal/noise ratio (fold background)” value is 34 fold background. Besides, in the experiment with murine sclerostin [12], the Kd amounted to 46 nM, the koff is 0.00018 s⁻¹ and the kon stood at 4400 M⁻¹ s⁻¹. In the experiment with human sclerostin [13], this molecule registered a dissociation constant (Kd) of 260 nM, a koff of 0.0016 s⁻¹ and a kon of 6600 M⁻¹ s⁻¹. Moreover, the binding result in experiment [7] is “binds”.

One may read the Kd as the free concentration of one partner at which half of the binding sites on the other are occupied at equilibrium, for simple one-to-one binding. The low end stands for tighter binding, the high end for weaker binding. As usually defined, the koff is a measure of how fast the partners let go of each other. High values mean fast dissociation, low ones slow dissociation. One may read the kon as the second-order rate constant of association. The low end stands for slower complex formation, the high end for faster complex formation.
